Values quoted from earlier work in PMC7593401.

Biological target: C3b (Homo sapiens) (UniProt P01024)
Experiment: SPR

Sequence of C3b (Homo sapiens) (P01024 23-667, chain 1 of 2): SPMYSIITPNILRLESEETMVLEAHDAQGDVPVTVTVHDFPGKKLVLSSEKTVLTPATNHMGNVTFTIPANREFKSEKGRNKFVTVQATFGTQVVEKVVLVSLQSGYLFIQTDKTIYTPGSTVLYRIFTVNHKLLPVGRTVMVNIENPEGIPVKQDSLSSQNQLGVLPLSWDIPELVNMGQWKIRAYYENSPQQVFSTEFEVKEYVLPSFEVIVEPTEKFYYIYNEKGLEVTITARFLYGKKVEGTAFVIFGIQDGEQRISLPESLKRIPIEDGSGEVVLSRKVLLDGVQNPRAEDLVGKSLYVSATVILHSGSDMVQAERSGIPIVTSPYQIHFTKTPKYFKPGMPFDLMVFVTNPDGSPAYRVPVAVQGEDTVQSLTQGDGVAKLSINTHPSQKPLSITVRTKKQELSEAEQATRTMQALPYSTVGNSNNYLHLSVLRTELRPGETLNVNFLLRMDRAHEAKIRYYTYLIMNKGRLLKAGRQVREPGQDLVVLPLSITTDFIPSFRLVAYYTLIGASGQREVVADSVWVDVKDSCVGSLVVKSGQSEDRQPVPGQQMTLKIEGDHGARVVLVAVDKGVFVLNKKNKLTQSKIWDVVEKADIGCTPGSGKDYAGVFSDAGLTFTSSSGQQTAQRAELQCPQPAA
Sequence of C3b (Homo sapiens) (P01024 749-1663, chain 2 of 2): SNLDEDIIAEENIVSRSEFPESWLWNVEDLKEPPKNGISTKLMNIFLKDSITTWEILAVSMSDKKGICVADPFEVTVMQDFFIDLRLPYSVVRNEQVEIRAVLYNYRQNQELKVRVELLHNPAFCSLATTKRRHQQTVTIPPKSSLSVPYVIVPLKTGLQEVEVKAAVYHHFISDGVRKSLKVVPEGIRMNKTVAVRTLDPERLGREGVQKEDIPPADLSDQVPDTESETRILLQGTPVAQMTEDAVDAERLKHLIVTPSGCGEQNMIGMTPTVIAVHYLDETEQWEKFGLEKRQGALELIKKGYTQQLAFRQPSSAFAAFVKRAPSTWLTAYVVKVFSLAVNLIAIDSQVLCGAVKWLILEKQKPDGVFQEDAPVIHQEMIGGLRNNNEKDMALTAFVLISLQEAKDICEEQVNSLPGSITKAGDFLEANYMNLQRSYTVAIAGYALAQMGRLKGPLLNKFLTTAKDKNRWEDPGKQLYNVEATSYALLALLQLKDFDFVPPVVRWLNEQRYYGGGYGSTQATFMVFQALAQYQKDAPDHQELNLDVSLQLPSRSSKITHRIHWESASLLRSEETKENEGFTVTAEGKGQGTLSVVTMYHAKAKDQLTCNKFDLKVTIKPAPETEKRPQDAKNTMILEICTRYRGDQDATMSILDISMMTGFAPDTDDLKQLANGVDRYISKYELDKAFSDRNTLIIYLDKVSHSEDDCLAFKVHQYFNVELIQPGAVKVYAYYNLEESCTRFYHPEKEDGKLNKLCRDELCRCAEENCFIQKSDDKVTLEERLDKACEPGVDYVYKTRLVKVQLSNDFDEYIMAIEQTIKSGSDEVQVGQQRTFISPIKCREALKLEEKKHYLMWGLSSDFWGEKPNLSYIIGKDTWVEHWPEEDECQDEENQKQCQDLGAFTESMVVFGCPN
Sequence of Factor H (P08603 19-1231): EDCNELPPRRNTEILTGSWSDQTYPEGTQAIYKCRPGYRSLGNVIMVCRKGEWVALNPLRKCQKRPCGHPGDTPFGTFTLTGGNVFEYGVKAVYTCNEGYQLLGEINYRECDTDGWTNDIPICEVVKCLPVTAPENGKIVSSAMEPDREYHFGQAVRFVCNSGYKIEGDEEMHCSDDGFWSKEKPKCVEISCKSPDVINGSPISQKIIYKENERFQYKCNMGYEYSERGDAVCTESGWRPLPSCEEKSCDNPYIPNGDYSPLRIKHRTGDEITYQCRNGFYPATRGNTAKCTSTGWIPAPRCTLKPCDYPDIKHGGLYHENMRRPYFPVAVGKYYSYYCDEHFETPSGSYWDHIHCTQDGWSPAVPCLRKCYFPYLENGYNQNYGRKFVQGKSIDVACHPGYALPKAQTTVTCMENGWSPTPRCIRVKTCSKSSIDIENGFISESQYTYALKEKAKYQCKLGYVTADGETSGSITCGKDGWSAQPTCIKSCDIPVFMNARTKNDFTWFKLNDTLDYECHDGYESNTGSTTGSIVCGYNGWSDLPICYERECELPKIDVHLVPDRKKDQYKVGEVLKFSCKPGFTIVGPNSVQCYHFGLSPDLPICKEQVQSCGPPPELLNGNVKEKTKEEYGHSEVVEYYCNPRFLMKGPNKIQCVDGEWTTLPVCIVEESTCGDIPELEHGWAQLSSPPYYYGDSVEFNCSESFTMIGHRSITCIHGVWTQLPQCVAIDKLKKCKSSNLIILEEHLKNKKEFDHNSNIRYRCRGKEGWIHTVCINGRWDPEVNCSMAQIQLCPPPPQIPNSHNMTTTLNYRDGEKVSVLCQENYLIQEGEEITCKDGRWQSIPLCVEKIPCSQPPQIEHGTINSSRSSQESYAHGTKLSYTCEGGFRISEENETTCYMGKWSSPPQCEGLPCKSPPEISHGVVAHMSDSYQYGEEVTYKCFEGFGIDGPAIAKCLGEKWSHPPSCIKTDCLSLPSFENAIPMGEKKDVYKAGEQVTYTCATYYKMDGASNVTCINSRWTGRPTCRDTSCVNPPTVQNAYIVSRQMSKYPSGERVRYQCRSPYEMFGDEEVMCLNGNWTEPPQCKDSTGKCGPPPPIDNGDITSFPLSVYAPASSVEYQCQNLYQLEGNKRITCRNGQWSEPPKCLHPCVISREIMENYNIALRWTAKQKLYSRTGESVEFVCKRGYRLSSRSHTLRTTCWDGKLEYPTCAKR
Sequence of FHL-1 (P08603 19-1231): as above

Q: Which Kd does the source give for FHL-1 (from UniProt P08603) here?
A: Its Kd is 1000 nM.

Q: With Factor H (from UniProt P08603) as the substance, how does the Kd read?
A: The Kd was 600 nM.
